The text below walks through data of patent US20240270846A1 (published 2024).

The target in the assay is T1, CD3 epsilon homodimer protein (UniProt P07766 23-126).
T1 construct: also called CD3 (CD3 epsilon)
Nature of the assay: SPR Biacore T200, antibody over immobilised CD3e homodimer. (In SPR one partner is held on a chip, and binding of the other changes the refractive index at the surface.)
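Also: CD3 epsilon homodimer amine-coupled on a CM4 chip, run at 25 °C in HBS-EP+, Z = bound amount of each single-residue H chain variant over that of the parent antibody.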

T1 sequence (P07766 23-126): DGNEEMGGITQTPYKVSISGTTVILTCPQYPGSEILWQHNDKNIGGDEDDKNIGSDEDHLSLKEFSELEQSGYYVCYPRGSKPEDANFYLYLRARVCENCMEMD

B1: CE115HA000 A52aS one-arm antibody (antibody, human IgG1, kappa, L234A L235A, N297A, name in Kabat numbering)
heavy: QVQLVESGGGVVQPGRSLRLSCAASGFTFSNAWMHWVRQAPGKGLEWVAQIKSKSNNYATYYAESVKGRFTISRDDSKNSLYLQMNSLKTEDTAVYYCRYVHYGAYYGVDAWGQGTTVTVSSASTKGPSVFPLAPSSKSTSGGTAALGCLVKDYFPEPVTVSWNSGALTSGVHTFPAVLQSSGLYSLSSVVTVPSSSLGTQTYICNVNHKPSNTKVDKKVEPKSCDKTHTCPPCPAPEAAGGPSVFLFPPKPKDTLMISRTPEVTCVVVDVSHEDPEVKFNWYVDGVEVHNAKTKPREEQYASTYRVVSVLTVLHQDWLNGKEYKCKVSNKALPAPIEKTISKAKGQPREPQVYTLPPSRCELTKNQVSLSCAVKGFYPSDIAVEWESNGQPENNYKTTPPVLDSDGSFFLVSKLTVDKSRWQQGNVFSCSVMHEALHNHYTQKSLSLSPDYKDDDDK
chain: EPKSSDKTHTCPPCPAPELLGGPSVFLFPPKPKDTLMISRTPEVTCVVVDVSHEDPEVKFNWYVDGVEVHNAKTKPREEQYNSTYRVVSVLTVLHQDWLNGKEYKCKVSNKALPAPIEKTISKAKGQPREPQVCTLPPSRDELTKNQVSLWCLVKGFYPSDIAVEWESNGQPENNYKTTPPVLDSDGSFFLYSKLTVDKSRWQQGNVFSCSVMHEALHNRYTQKSLSLSP
light: DIVMTQSPLSLPVTPGEPASISCRSSQSLVHSNRNTYLHWYQQKPGQAPRLLIYKVSNRFSGVPDRFSGSGSGTDFTLKISRVEAEDVGVYYCGQGTQVPYTFGQGTKLEIKRTVAAPSVFIFPPSDEQLKSGTASVVCLLNNFYPREAKVQWKVDNALQSGNSQESVTEQDSKDSTYSLSSTLTLSKADYEKHKVYACEVTHQGLSSPVTKSFNRGEC
notes: one-arm antibody
As for B1, the “ratio of amounts bound (Z=Y/X vs CE115HA000)” value came out at 1.05.

B2: CE115HA000 A52aV one-arm antibody (antibody, human IgG1, kappa, L234A L235A, N297A, name in Kabat numbering)
heavy: QVQLVESGGGVVQPGRSLRLSCAASGFTFSNAWMHWVRQAPGKGLEWVAQIKVKSNNYATYYAESVKGRFTISRDDSKNSLYLQMNSLKTEDTAVYYCRYVHYGAYYGVDAWGQGTTVTVSSASTKGPSVFPLAPSSKSTSGGTAALGCLVKDYFPEPVTVSWNSGALTSGVHTFPAVLQSSGLYSLSSVVTVPSSSLGTQTYICNVNHKPSNTKVDKKVEPKSCDKTHTCPPCPAPEAAGGPSVFLFPPKPKDTLMISRTPEVTCVVVDVSHEDPEVKFNWYVDGVEVHNAKTKPREEQYASTYRVVSVLTVLHQDWLNGKEYKCKVSNKALPAPIEKTISKAKGQPREPQVYTLPPSRCELTKNQVSLSCAVKGFYPSDIAVEWESNGQPENNYKTTPPVLDSDGSFFLVSKLTVDKSRWQQGNVFSCSVMHEALHNHYTQKSLSLSPDYKDDDDK
chain: EPKSSDKTHTCPPCPAPELLGGPSVFLFPPKPKDTLMISRTPEVTCVVVDVSHEDPEVKFNWYVDGVEVHNAKTKPREEQYNSTYRVVSVLTVLHQDWLNGKEYKCKVSNKALPAPIEKTISKAKGQPREPQVCTLPPSRDELTKNQVSLWCLVKGFYPSDIAVEWESNGQPENNYKTTPPVLDSDGSFFLYSKLTVDKSRWQQGNVFSCSVMHEALHNRYTQKSLSLSP
light: DIVMTQSPLSLPVTPGEPASISCRSSQSLVHSNRNTYLHWYQQKPGQAPRLLIYKVSNRFSGVPDRFSGSGSGTDFTLKISRVEAEDVGVYYCGQGTQVPYTFGQGTKLEIKRTVAAPSVFIFPPSDEQLKSGTASVVCLLNNFYPREAKVQWKVDNALQSGNSQESVTEQDSKDSTYSLSSTLTLSKADYEKHKVYACEVTHQGLSSPVTKSFNRGEC
notes: one-arm antibody
Regarding B2, the “ratio of amounts bound (Z=Y/X vs CE115HA000)” value amounted to 0.52.
